In article PMC6476477, “A DNA aptamer reveals an allosteric site for inhibition in metallo-β-lactamases”:

Legend:
Conditions in all cases: protein: recombinant; tags: none stated; hairpin (M-fold predicted)
[1] = biological target: T1, 5/B/6 metallo-beta-lactamase (MBL) wild type (Bacillus cereus 5/B/6, UniProt P14488 30-256); assay: enzyme inhibition kinetics (uncompetitive KI'); cefuroxime substrate; NMR: 20 mM MOPS, 1 mM ZnSO4, pH 7, 25 C (buffer stated for assignment sample; titration at 25 C); kinetic assay buffer not in the material
T1 sequence: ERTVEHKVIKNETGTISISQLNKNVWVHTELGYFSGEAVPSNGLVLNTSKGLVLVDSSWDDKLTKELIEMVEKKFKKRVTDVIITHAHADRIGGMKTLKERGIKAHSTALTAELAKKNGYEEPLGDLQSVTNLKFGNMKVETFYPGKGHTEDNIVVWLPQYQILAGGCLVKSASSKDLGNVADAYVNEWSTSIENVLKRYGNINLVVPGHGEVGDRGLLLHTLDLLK

[2] = biological target: T1, 5/B/6 metallo-beta-lactamase (MBL) wild …; assay: enzyme inhibition; cefuroxime substrate; NMR: 20 mM MOPS, 1 mM ZnSO4, pH 7, 25 C (buffer stated for assignment sample; titration at 25 C); kinetic assay buffer not in the material
[3] = biological target: T1, 5/B/6 metallo-beta-lactamase (MBL) wild …; assay: NMR 1H-15N HSQC titration; 750 uM enzyme, 0-4 eq 10-mer; range of fits for Lys78, Lys104, Lys107; 1 mM Zn2+ (NMR buffer); NMR: 20 mM MOPS, 1 mM ZnSO4, pH 7, 25 C (buffer stated for assignment sample; titration at 25 C); kinetic assay buffer not in the material

CCAAACTTGG (structured_DNA) [10-mer DNA aptamer]
Ki [1]: 63 ± 3 nM | IC50 [2]: 120 ± 5 nM | Kd [3]: 153 nM
